The values below come from paper PMC5450233.

B1: GST–SKIP(1-310) [not stated] / HA–KHC [rat] (parent)
chain 1: MEPGEVKDRILENISLSVKKLQSYFAACEDEIPAIRNHDKVLQRLCEHLDHALLYGLQDLSSGYWVLVVHFTRREAIKQIEVLQHVATNLGRSRAWLYLALNENSLESYLRLFQENLGLLHKYYVKNALVCSHDHLTLFLTLVSGLEFIRFELDLDAPYLDLAPYMPDYYKPQYLLDFEDRLPSSVHGSDSLSLNSFNSVTSTNLEWDDSAIAPSSEDYDFGDVFPAVPSVPSTDWEDGDLTDTVSGPRSTASDLTSSKASTRSPTQRQNPFNEEPAETVSSSDTTPVHTTSQEKEEAQALDPPDACTEL
chain 2: MADPAECSIKVMCRFRPLNEAEILRGDKFIPKFKGEETVVIGQGKPYVFDRVLPPNTTQEQVYNACAKQIVKDVLEGYNGTIFAYGQTSSGKTHTMEGKLHDPQLMGIIPRIAHDIFDHIYSMDENLEFHIKVSYFEIYLDKIRDLLDVSKTNLAVHEDKNRVPYVKGCTERFVSSPEEVMDVIDEGKANRHVAVTNMNEHSSRSHSIFLINIKQENVETEKKLSGKLYLVDLAGSEKVSKTGAEGAVLDEAKNINKSLSALGNVISALAEGTKTHVPYRDSKMTRILQDSLGGNCRTTIVICCSPSVFNEAETKSTLMFGQRAKTIKNTVSVNLELTAEEWKKKYEKEKEKNKALKSVIQHLEVELNRWRNGEAVPEDEQISAKDQKNLEPCDNTPIIDNITPVVDGISAEKEKYDEEITSLYRQLDDKDDEINQQSQLAEKLKQQMLDQDELLASTRRDYEKIQEELTRLQIENEAAKDEVKEVLQALEELAVNYDQKSQEVEDKTRANEQLTDELAQKTTTLTTTQRELSQLQELSNHQKKRATEILNLLLKDLGEIGGIIGTNDVKTLADVNGVIEEEFTMARLYISKMKSEVKSLVNRSKQLESAQTDSNRKMNASERELAACQLLISQHEAKIKSLTDYMQNMEQKRRQLEESQDSLSEELAKLRAQEKMHEVSFQDKEKEHLTRLQDAEEVKKALEQQMESHREAHQKQLSRLRDEIEEKQRIIDEIRDLNQKLQLEQERLSSDYNKLKIEDQEREVKLEKLLLLNDKREQAREDLKGLEETVSRELQTLHNLRKLFVQDLTTRVKKSVELDSDDGGGSAAQKQKISFLENNLEQLTKVHKQLVRDNADLRCELPKLEKRLRATAERVKALESALKEAKENAMRDRKRYQQEVDRIKEAVRAKNMARRAHSAQIAKPIRPGHYPASSPTAVHAVRGGGGSSNSTHYQK

In this assay the parent is B1. The experiment in a line: GST pull-down, immunoblot (IB: HA) quantified. As to conditions: with HA–KHC [rat]; lysates of 293T cells co-expressing HA-KHC and HA-KLC2 (kinesin-1 tetramer); three independent experiments; parent: 1; read off a plot. For orientation: Immunoblotting shows a protein as a band on a membrane.
For the variant chain 1 E217A D218A Y219A, the ratio to parent was 0.5.

In the case of chain 1 D220A F221A G222A, the ratio to parent turned out to be 0.38. Turning to chain 1 D238A G239A D240A, the ratio to parent was 0.98. For the variant chain 1 W236A E237A, the ratio to parent turned out to be 0.97.
